{"source": "paper doi:10.1101/2025.01.13.632879", "about": "(bioRxiv, 2025)", "biological_target": "the molecule itself", "experiment": "SEC; affinity-purified protein alone; Superdex 200 Increase 10/300 GL, 100 uL of 10 mg/mL, 0.2 mL/min; 200 mM NaCl, 10 mM Tris HCl pH 7.5, 5% glycerol, 1 mM DTT; monomer and dimer peaks"}
{"protein": "Escherichia coli LolA P65T (natural protein, UniProt P61316 22-203, looked up, LolA of Escherichia coli; source: E. coli BL21(DE3), purified (Ni-NTA, SEC)) DAASDLKSRLDKVSSFHASFTQKVTDGSGAAVQEGQGDLWVKRTNLFNWHMTQPDESILVSDGKTLWFYNPFVEQATATWLKDATGNTPFMLIARNQSSDWQQYNIKQNGDDFVLTPKASNGNLKQFTINVGRDGTIHQFSAVEQDDQRSSYQLKSQQNGAVDAAKFTFTPPQGVTVDDQRK", "values": [{"measurement": "stoichiometry N", "value": 2}]}
